This note sets out measurements from patent publication US5679770A, “Polypeptide, DNA fragment encoding the same, drug composition containing the same and process for producing the same” (Mochida Pharmaceutical Co., Ltd., priority 1991, dated 1997).

Holding throughout (assay type): biochemical
One assay addresses T1, Bovine trypsin (Bos taurus, UniProt P00760).
T1 construct: purchased Sigma Chemical Co. Type XIII
T1 sequence (P00760 24-246): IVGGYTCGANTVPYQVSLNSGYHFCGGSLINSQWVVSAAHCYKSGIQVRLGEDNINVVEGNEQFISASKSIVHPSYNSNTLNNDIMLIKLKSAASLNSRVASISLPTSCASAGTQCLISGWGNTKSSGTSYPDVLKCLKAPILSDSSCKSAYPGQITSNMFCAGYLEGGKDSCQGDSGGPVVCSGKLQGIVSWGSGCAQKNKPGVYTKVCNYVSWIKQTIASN
Put plainly: Bovine trypsin-inhibiting activity (synthetic substrate S-2444). Particulars: purified polypeptide, serially diluted. Here is the method: The purified polypeptide of the present invention was dissolved in 100 μl of distilled water, and the solution was serially diluted with a 0.1% BSA/0.2M triethanolamine-HCl buffer (pH 7.8) for use in the activity measurement. Measurement of the trypsin-inhibiting activity in the thus prepared test sample was carried out in accordance with the Kassell's method (Kassell, B. et al., Methods in Enzymology, vol.19, pp.844-852, 1970) using a synthetic substrate S-2444 (Daiichi Pure Chemicals Co., Ltd.).
Bovine trypsin (Type XIII, Sigma Chemical Co.) was dissolved in 0.001M HCl to a final concentration of 13,600 BAEEU/ml and the solution was further diluted with 0.1% BSA/0.2M triethanolamine-HCl buffer (pH 7.8) to prepare 1.2 BAEEU/ml of trypsin solution. Separately from this, 2 mM solution of the synthetic substrate S-2444 was prepared by dissolving it in distilled water. Next, 100 μl of the test sample was mixed with 100 μl of the trypsin solution. After incubating statically at 37° C. for 10 minutes, 50 μl of the S-2444 solution was added to start the reaction. The reaction was carried out at 37° C. for 15 minutes and then stopped by adding 50 μl of 50% acetic acid solution to the reaction mixture. Thereafter, absorbance at a wavelength of 405 nm was measured using a spectrophotometer. In this instance, in order to eliminate absorbancy of various contents in the reaction mixture other than the reaction product, a blank solution was prepared by mixing 100 μl of the bovine trypsin solution with 50 μl of 50% acetic acid and then with 100 μl of each test sample and 50 μl of the S-2444 solution.

The target in a further assay is T2, human trypsin (Homo sapiens, UniProt P07477).
T2 construct: purchased Calbiochem
Put plainly: Human trypsin-inhibiting activity (synthetic substrate S-2444). Particulars: purified polypeptide, various concentration levels. Here is the method: The purified polypeptide of the present invention was dissolved in 100 μl of distilled water. Concentration of polypeptide in the thus prepared solution was determined based on its bovine trypsin-inhibiting activity measured in accordance with the above procedure (1) using UTI (Mochida Pharmaceutical Co., Ltd.; cf. H. Ohnishi et al., Nippon Yakurigaku Zasshi, vol.85, pp.1-6, 1985) as a standard. The polypeptide solution was then diluted to various concentration levels with 0.03% BSA/0.2M triethanolamine-HCl buffer (pH 7.8) for use in the activity measurement. Separately from this, human trypsin (Calbiochem) was dissolved in 1 mM HCl to a concentration of 1,000 SU/ml and the solution was further diluted with the 0.03% BSA/0.2M triethanolamine-HCl buffer (pH 7.8) to prepare a 1.25 SU/ml solution of human trypsin. Thereafter, human trypsin-inhibiting activity was measured in the same manner as described in the above procedure (1) using the aforementioned synthetic substrate S-2444. Separately from this, polypeptide AN68 (sequence described in Example 17(3)) was diluted to various concentration levels. Thereafter, human trypsin-inhibiting activity was measured in the same manner as described in the above procedure (1) and compared with the trypsin-inhibiting activity of the novel polypeptide of the present invention.

The next assay addresses T3, human FXa (Homo sapiens, UniProt P00742).
T3 construct: purchased American Diagnostica Inc
Put plainly: FXa-inhibiting activity (synthetic substrate S-2222). Particulars: concentration expressed as bovine trypsin-inhibiting activity; for FXa-inhibiting activity, times higher than that of polypeptide AN68: relative to control AN68; for FXa-inhibiting activity, times higher than that of polypeptide TN70: relative to control TN70. Here is the method: The purified polypeptide of the present invention was dissolved in 100 μl of distilled water. Polypeptide concentration of this solution was determined based on its bovine trypsin-inhibiting activity measured in accordance with the above procedure (1) using the aforementioned UTI as a standard. The thus prepared solution was then diluted to various concentration levels with 0.1% BSA/150 mM NaCl/5 mM CaCl2 /50 mM Tris-HCl buffer (pH 8.3) for use in the activity measurement. Separately from this, a polypeptide TN70 (cf. Japanese Patent Application No. 3-325220) and polypeptide AN68 were purified respectively in accordance with the procedure of Example 2(4) from a culture supernatant of E. coli JE5505(pM552) (deposit No., FERM BP-3561) and E. coli JE5505(pM594) obtained by transforming E. coli JE5505 with the aforementioned plasmid pM594 obtained in Example 4. The thus purified polypeptide TN70 and AN68 were diluted to various concentration levels to be used as control solutions.
Using a synthetic compound S-2222 (Daiichi Pure Chemicals Co., Ltd.) as a substrate, FXa-inhibiting activities in the thus prepared test sample solution and control solution were measured in accordance with the method of Ohno et al. (Ohno H. et al., Thromb. Res., vol.19, pp.579-588, 1980) as follows. First, human FXa (American Diagnostica Inc.) was dissolved in distilled water to a final concentration of 10 PEU/ml and the solution was further diluted with the aforementioned 0.1% BSA/150 mM NaCl/5 mM CaCl2 /50 mM Tris-HCl buffer (pH 8.3) to prepare 0.1 PEU/ml of FXa solution. Separately from this, a 4 mM solution of S-2222 was prepared by dissolving it in distilled water and the solution was further diluted with the 0.1% BSA/150 mM NaCl/5 mM CaCl2 /50 mM Tris-HCl buffer (pH 8.3) to obtain a 2 mM solution of S-2222.
Next, 25 μl of the test sample or control solution was mixed with 100 μl of the 0.1% BSA/150 mM NaCl/5 mM CaCl2 /50 mM Tris-HCl buffer (pH 8.3) and 25 μl of the FXa solution. After incubating statically at 37° C. for 10 minutes, 100 μl of the S-2222 solution was added to start the reaction. The reaction was carried out at 37° C. for 30 minutes and then stopped by adding 50 μl of 50% acetic acid solution to the reaction mixture. Thereafter, absorbance at a wavelength of 405 nm was measured using a spectrophotometer. In this instance, in order to eliminate absorbancy of various contents in the reaction mixture other than the reaction product, a blank solution was prepared by mixing 25 μl of the FXa solution with 50 μl of 50% acetic acid and then with 25 μl of each test sample or the control solution, 100 μl of the 0.1% BSA/150 mM NaCl/5 mM CaCl2 /50 mM Tris-HCl buffer (pH 8.3) and with 100 μl of the S-2222 solution.
The results are shown in FIG. 45 to FIG. 53 and FIG. 66. In these figures, polypeptide concentration in the reaction solution was expressed as its bovine trypsin-inhibiting activity. Also, residual human FXa activity was expressed by percentage based on the absorbance of a control reaction mixture in which 25 μl of the 0.1% BSA/150 mM NaCl/5 mM CaCl2 /50 mM Tris-HCl buffer (pH 8.3) was used instead of the test sample.

T3 sequence (P00742 235-488 limits assumed): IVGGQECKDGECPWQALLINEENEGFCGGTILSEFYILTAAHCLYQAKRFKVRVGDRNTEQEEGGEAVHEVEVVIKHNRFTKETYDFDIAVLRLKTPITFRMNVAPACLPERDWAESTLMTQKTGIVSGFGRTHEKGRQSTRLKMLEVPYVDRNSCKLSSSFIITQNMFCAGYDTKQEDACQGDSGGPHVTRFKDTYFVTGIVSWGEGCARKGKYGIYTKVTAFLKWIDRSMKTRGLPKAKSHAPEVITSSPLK
T3 sequence (P00742 41-179 partner limits assumed): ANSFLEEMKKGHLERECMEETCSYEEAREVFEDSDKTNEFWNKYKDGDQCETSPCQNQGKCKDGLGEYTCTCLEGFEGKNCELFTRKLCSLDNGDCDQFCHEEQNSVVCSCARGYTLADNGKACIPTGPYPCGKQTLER

Regarding “Q19K/Y46E: formula 1 sequence with Lys for position 15 Gln and Glu for position 42 Tyr; SEQ. I.D. NO. 8; plasmid pM736 (AACNLPIVRGPCRAFIKLWAFDAVKGKCVLFPYGGCQGNGNKFESEK)”, the bovine trypsin inhibition entry with Bovine trypsin was “can inhibit bovine trypsin in a concentration-dependent manner”. Moreover, the human trypsin inhibition entry with human trypsin is listed as “can inhibit human trypsin in a concentration-dependent manner”. Also, in the assay with human FXa, the “FXa-inhibiting activity, times higher than that of polypeptide AN68” value (from here on “FXa-inhibiting activity … of polypeptide AN68”) is given as “about ten”.

With “Q19R: formula 1 sequence with Arg for position 15 Gln; amino acids 1-68 of SEQ. I.D. NO. 6; plasmid pM735 (AACNLPIVRGPCRAFIRLWAFDAVKGKCVLFPYGGCQGNGNKFYSEK)”, the bovine trypsin inhibition entry with Bovine trypsin is given as “can inhibit bovine trypsin in a concentration-dependent manner”. The human trypsin inhibition entry with human trypsin was “can inhibit human trypsin in a concentration-dependent manner”. Also, in the assay with human FXa, the “FXa-inhibiting activity … of polypeptide AN68” value is given as “about six”.

Take “Q19K-AN: formula 1 sequence with Lys for position 15 Gln; amino acids 1-68 of SEQ. I.D. NO. 14; plasmid pM576B (AACNLPIVRGPCRAFIKLWAFDAVKGKCVLFPYGGCQGNGNKFYSEK)”: the bovine trypsin inhibition entry with Bovine trypsin was “can inhibit bovine trypsin in a concentration-dependent manner”. Moreover, the human trypsin inhibition result with human trypsin is “can inhibit human trypsin in a concentration-dependent manner”.

For “Q19K: formula 1 sequence with Lys for position 15 Gln; amino acids 1-70 of SEQ. I.D. NO. 4; plasmid pM576 (DDAACNLPIVRGPCRAFIKLWAFDAVKGKCVLFPYGGCQGNGNKFYSEK)”, the bovine trypsin inhibition result with Bovine trypsin is reported as “can inhibit bovine trypsin in a concentration-dependent manner”. The human trypsin inhibition entry with human trypsin is given as “can inhibit human trypsin in a concentration-dependent manner”. Further, in the assay with human FXa, the “FXa-inhibiting activity, times higher than that of polypeptide TN70” value is listed as “about five”.

“R11E/Y46E: formula 1 sequence with Glu for position 7 Arg and Glu for position 42 Tyr; SEQ. I.D. No. 10; plasmid pM726B (AACNLPIVEGPCRAFIQLWAFDAVKGKCVLFPYGGCQGNGNKFESEK)”: the bovine trypsin inhibition entry with Bovine trypsin is “can inhibit bovine trypsin in a concentration-dependent manner”. In the assay with human trypsin, the human trypsin inhibition result is “can inhibit human trypsin in a concentration-dependent manner”. The “FXa-inhibiting activity … of polypeptide AN68” value with human FXa is recorded as “about three”.

Turning to “Q19R/Y46E: formula 1 sequence with Arg for position 15 Gln and Glu for position 42 Tyr; SEQ. I.D. NO. 16; plasmid pM737B (AACNLPIVRGPCRAFIRLWAFDAVKGKCVLFPYGGCQGNGNKFESEK)”, the bovine trypsin inhibition entry in the assay with Bovine trypsin is “can inhibit bovine trypsin in a concentration-dependent manner”. For the same molecule, the human trypsin inhibition result in the assay with human trypsin was “can inhibit human trypsin in a concentration-dependent manner”. In addition, the “FXa-inhibiting activity … of polypeptide AN68” value in the assay with human FXa is recorded as “about ten”.

With “Y46E: formula 1 sequence with Glu for position 42 Tyr; amino acids 1-70 of SEQ. I.D. NO. 2; from plasmid pM575B (TVAACNLPIVRGPCRAFIQLWAFDAVKGKCVLFPYGGCQGNGNKFESEK)”, in the assay with Bovine trypsin, the bovine trypsin inhibition entry is listed as “can inhibit bovine trypsin in a concentration-dependent manner”. In addition, the human trypsin inhibition result with human trypsin was “can inhibit human trypsin in a concentration-dependent manner”. Moreover, the “FXa-inhibiting activity, times higher than that of polypeptide TN70” value with human FXa is “about seven”.

Take “Y46E-AN: formula 1 sequence with Glu for position 42 Tyr; amino acids 1-68 of SEQ. I.D. NO. 12; plasmid pM575C (MKQSTIALALLPLLFTPVTKA)”: the bovine trypsin inhibition result with Bovine trypsin is “can inhibit bovine trypsin in a concentration-dependent manner”. The human trypsin inhibition result with human trypsin was “can inhibit human trypsin in a concentration-dependent manner”.

B1: Q19R/Y46D: formula 1 sequence with Arg for position 15 Gln and Asp for position 42 Tyr; SEQ. I.D. NO. 36; plasmid pM744 (protein)
chain: AACNLPIVRGPCRAFIRLWAFDAVKGKCVLFPYGGCQGNGNKFDSEKECREYCGVPGDGDEELLRFSN
For B1, the bovine trypsin inhibition entry with Bovine trypsin was “can inhibit bovine trypsin in a concentration-dependent manner”. Further, in the assay with human trypsin, the human trypsin inhibition entry is “can inhibit human trypsin in a concentration-dependent manner”. Also, the “FXa-inhibiting activity … of polypeptide AN68” value in the assay with human FXa is on record as “about 18 times”.

B2: Q19K/Y46D: formula 1 sequence with Lys for position 15 Gln and Asp for position 42 Tyr; SEQ. I.D. NO. 35; plasmid pM727 (protein)
chain: AACNLPIVRGPCRAFIKLWAFDAVKGKCVLFPYGGCQGNGNKFDSEKECREYCGVPGDGDEELLRFSN
As to B2, the bovine trypsin inhibition entry with Bovine trypsin is “can inhibit bovine trypsin in a concentration-dependent manner”. In addition, the human trypsin inhibition entry with human trypsin is “can inhibit human trypsin in a concentration-dependent manner”. Besides, the “FXa-inhibiting activity … of polypeptide AN68” value with human FXa was “about twenty”.
